{"source": "the DeepSol protein solubility set"}
{"assay": "soluble on expression in E. coli; label from the status in PepcDB or PDB records"}
{"sequence": "MTYTTAKAAEKIGISAHTLRFYDKEGLLPNIGRDEYGNRCFTDNDLQWLGLLQCLKNTGMSLKDIKRFAECTVIGDDTIEERLSLFENQIENVKCQIAELKRYLDLLEYKLAFYQKAKALGSVKAVNLPQIPETA", "soluble on expression in E. coli": "soluble"}
{"sequence": "MQESAQFFNDTGVSMSMQGFHNEAIACLKKGLALEPDNSLMWLNLGLSYYAAKRQNDSKFALFQSLKYNPYEADAWDSLGLVLFETGDIDQAERAFESAIKLEPENGRVWNNYGTVLFNKENYRAARRAFESAVTLDPEMGDAVFNLRDTYLELGMNDLAERCNKILKEMDYQE", "soluble on expression in E. coli": "not soluble"}
{"sequence": "MPLRQKRLYWPLFFRDDLIMEKNKLQLEYVFDRVSTRSLWRYLSTPDGLSEWFAYDVRLEDNGDFYFQWDKNSGEKASVLEQREGERIRFQWHREQDQNACFEFVIHHSELTGGKSLEVIDYIAPEEVADMEHFWNNLISRLRLSLGAPE", "soluble on expression in E. coli": "not soluble"}
{"sequence": "MNIEALERLRGWMRAKGFSRFYVVRPENFAWLVGGANTLGMGESVAYLEVGEEVVLHTSAIEHPRMVEEEAPGLPARVHPWYAFPPPPGPNDLEHDLTPLRLVLSREAQGAFTHLGREAAMAVGEVVRSARPEWTEYALAGALAEALWGRGLRPLLLLVAVDERLFRYRHPLPKGKPLGRAFMAVVCAERRGLVANLTRMASFGHGEVEARYRKVLEVEAAALSASRPGATLGEVFAALQGAYARVGFPRAWGEHHQGGVGGYRSREVVATPGHPLVLEAGMVLAWNPSLSGAKVEDTFLLTEGGLLNLTEDPFWPAVEVEGRRRPDLWRGGG", "soluble on expression in E. coli": "soluble"}
{"sequence": "MRTLLIRYILWRNDGDPSYYNDDFKKLILFDELVDDDDVCTLIKNMRMTLSDGPLLDRLNQPVNNVEDVKRMIAISAKVARDIGRRSEIRWEDSFTILFRMIEKYFDDLMTDLYGEK", "soluble on expression in E. coli": "not soluble"}
{"sequence": "MGSDKIHHHHHHMAFFGYKDIDKLSGVDLAIYRFIVEHDEQIPYMRVRELARGAHVSNSSVMRFIRKIGYDSFPEFKVSLRSETPIQKPDAPGIQFVQPSAFPADITKIIRLAAQLMVNADNIVFVGIGASAALGEYASRQTSSLGFNSYVVKDPFYPLLPQLRNTSNNVLVAVSVSGQTSELVEMLNDFVNNPEVNIISITSNLESTIARMSRYALTYRATEERIHQYYDLTSQVPCLYIIEALLRELRHQEVVQHRFE", "soluble on expression in E. coli": "not soluble"}
{"sequence": "MKLMKKNTDDGAKIYTPLTLKLYDWWVLGVSNRLAWGCPTKEHLLPHFLEHLGNNHLDIGVGTGFYLTHVPESSLISLMDLNEASLNAASTRAGESKIKHKISHDVFDPYPAALHGQFDSISMFYLLHCLPGNISTKSCVIRNAAQALTDDGTLYGATILGDGVVHNSFGQKLMRIYNQKGIFSNTKDSEEGLTHILSEHFENVKTKVKGTVVMFSASGKK", "soluble on expression in E. coli": "not soluble"}
{"sequence": "MGSDKIHHHHHHVVQKFNRLFGKSNKGVGIELAPERVNVVQLRKQRQGLKLETFTSVAVPEGVVTDGQITDPAAMAQLIQQALAESKIKTTRVATGVPGRDSIVRIIPVPTELDDKELREMVLNHEAGLYLPYPREEADVDYQKLDYFVDEDGIEKVHVLLVATRKEITDTYISTFEQAGLQIDVLEINSFALIRTIREQLRQFGPQEAAVLVDIEFDSTEIAIIVNGVPQFSRTVPIGTYQMQTALARAMSLPTSRDMELLHGMIIPPTPLDGGKTGVTEIDPGMAAILRVLGELTDELRRSIDFYLNQSENLEVAQILLAGPGGGLQQLDEFFTQRLSLPTTQIDPIGSLSLEVDTDKYPQVKRSGLAIVLGLGMREV", "soluble on expression in E. coli": "not soluble"}
{"sequence": "MPTNCAAAGCATTYNKHINISFHRFPLDPKRRKEWVRLVRRKNFVPGKHTFLCSKHFEASCFDLTGQTRRLKMDAVPTIFDFCTHI", "soluble on expression in E. coli": "soluble"}
{"sequence": "MRNFDLSPLYRSAIGFDRLFNHLENNQSQSNGGYPPYNVELVDENHYRIAIAVAGFAESELEITAQDNLLVVKGAHADEQKERTYLYQGIAERNFERKFQLAENIHVRGANLVNGLLYIDLERVIPEAKKPRRIEIN", "soluble on expression in E. coli": "not soluble"}
{"sequence": "MPTLPRAANSRWRSLKIGLAPDLGLDDNGSLLLDFGPRQFTVSFDETLKPFVRDVSGSRLKDLPKPNKSDDETRANDAVNRYKLLKKDARTIAAQQVARLESAMCLRRRWSLENFQLFLVEHPLVRHLTRRLIWGVYSAENQLLACFRVAEDNSSSTADDDLFTLPEGDISIGTPHVLEISPTDAAAFGQLFADYELLPPFRQLDRNSYALTEAERNASELTRWAGRKCPSGRVMGLANKGWIKGEPQDGGWIGWMIKPLGRWSLIMEIDEGFAVGMSPAELSAEQLLSKLWLWEGKAERYGWGSNSTQEAQFSVIDAITASELINDIEALFE", "soluble on expression in E. coli": "not soluble"}
{"sequence": "MSLKSSTEKKLAAARGTAELIVEDAKKEAETTKKEALLEAKEENHRLRTEIENELRGRRTETQKAENRLLQREENLDRKDTSLSKREATLERKEESISKRQQQIEEKESKLAEMIQAEQTELERISALSKEEAKSIILNQVEEELTHDTAIMVKESENRAKEESDKKAKNILSLAIQRCAADHVAETTVSVVTLPNDEMKGRIIGREGRNIRTLETLTGIDLIIDDTPEAVILSGFDPIRREIARIALEKLVQDGRIHPARIEEMVDKARKEVDEHIREVGEQATFEVGIHSIHPDLIKILGRLRYRTSYGQNVLNHSLEVSKLAGILAGELGEDVTLAKRAGLLHDIGKAIDHEIEGSHVEIGVELATKYKENDVVINSIASHHGDTEATSVIAVLVAAADALSAARPGARSETLENYIRRLEKLEEISESYDGVEKSYAIQAGREVRIIVEPDTIDDLSSYRLARDIRKRIEEELDYPGHIKVTVIRETRAVEYAKEGHHHHHH", "soluble on expression in E. coli": "not soluble"}
{"sequence": "MAHHHHHHMSATPPPPPPPSSNASTGYPHTRASPGTYRGAGRGAYSRGPSYQSSGSSPSSSPIYTSGPSRRGGGNTRVRVHTYGFVHADPAASLAAAPPASHTSAPRATPDVATPPLPSASSAASPPLSSISSDVLSSLNASVQESLSGYLYTDAIELAQRLFDLEASYAHLHLLAHCYTVSGATGTAYRLLQHYYPFLELHVTRPRTAGASTSAAGGAAGGVGSGVLPFDARRTWTASYGVHPSQHPFSSGMPSATAAVTFSASSNENNLTSDEFELGYETVDLQSQWDCQYLLGVCCYRTQHYEDGARVLSQLLYVCHQVTTTSSVLRRRLQQLRQQQQQVTVRSDTSEEDDAGVAAAVRATERQLAGLCLRDGGAHFAGALLVGSVREASPAAPDRG", "soluble on expression in E. coli": "not soluble"}
{"sequence": "NTDKHIYLEEHISPESQPMLSTYFRSMGKPRSIKENVLTVPQDASPETLALYYFARIYLERYEGVPLPDDMPDLIEFGRKHNMPWVVAEAKLNKAIRMIELDDDWHAELLLHDVIGESRDIGYLALQGRAYRWMGNLEIARNQIHNGLKHYRTAYELLENTVFEIQVAMTLNNIGTVYLDSSDWNRASNYLKQALDVYESSEYEYDNS", "soluble on expression in E. coli": "not soluble"}
{"sequence": "MGSDKIHHHHHHMGEQQLDCALDLMRRLPPQHCDKNLTDLIDLCPHLVDDLLSTIDQPLKIAADRETGKQYLLCDYNRDGDSYRSPWSNTYDPPLEDGQLPSEKRRKMEIEANAAFESYRDLYFEGGVSSVYFWDLDNGGFAGIVLIKKEGDGAKNITGCWDSIHVIEITERARQAHYKLTSTIMLWLQTNKSSSGVMNLGGSLTRQHEMDAPINDQNTHLANMGRMIEDQESKMRLTINEIYFGKTKKVMSDLRSTEKQSELEKQDEIVRELNNAMANRGN", "soluble on expression in E. coli": "not soluble"}
{"sequence": "MKDFLRLELPVLPLRNTVVLPHTTTGVDVGRLKSKRAVEEALSADRLLFLVTQKDPEVDDPAPEDLYAVGTLAVVKQAMRLPDGTLQVMVEARSRARLLSYVAAPYLRAVGEAIPEPPLKDPELARVLVNEVQEAFERYLQNHKTLRLDRYQQEAVKSTRDPAILADLVAHHATWTLEEKQTILETPEVEERLKRVLALLLRDLERFELDKKIAARVKEQMDQNQREYYLREQMKAIQKELGGGEDFLTEIEELRERIEKKGMPEPVKEKALKELKRLERMQPGSPEATVSRTYLDWLLEVPWTEADPEVLDISVTKRVLDEDHYGLKEVKERILEYLAVRQLTQGKEVKGHAPILCFVGPPGVGKTSLGKSIARSMNRRFHRISLGGVRDEAEIRGHRRTYIGALPGKIIQGMKQVGVVNPVFLLDEIDKLSSDWRGDPAAALLEVLDPEQNHTFTDHYLDVPYDLSKVFFITTANTLSTIPRPLLDRMEVIEIPGYTLHEKRAIARYFRWPFQVKEAGLEGRLEITDRAIERIVQEYTREAGVRNLDRELSKVARKAAKDYLEKPWEGVRVVDAEDLEAYLGVPKYRPDRAEKEPQVGAAQGLAWTPYGGTLLTIEAVAVPGTGKVNLTGNLGEVMKESDHAVLTYLRVHREEWGLPEGFHKDYDLHIHVPEGATPKDGPSAGITIATALASALTGRPVRMDIAMTGEITLRGRVLPIGGVKEKLLAAHQAGIHRVILPKENAAELKEVPEEILKDLEIHFVEEVGEVLKLLLLPPPPPPAVQPDRPQPGVGA", "soluble on expression in E. coli": "soluble"}
{"sequence": "MVAERNKDGRVVFDRGLRAQMMAIDGTWRRPCLIEDVSELGAKLTVEGTVEGLNLKEFFLLLSSTGLAYRRCELSWINGDQIGVTFLRLDRKKKRAAQVENA", "soluble on expression in E. coli": "not soluble"}
{"sequence": "MAHHHHHHMQPRHFHVCNFLLTCSCERGHPRVRCLRFAALRFAKPHFALLCRTSLCFFFATPTRAELATDGLKGRIYEVNLADLNNDEDQAHKKIKLCCDHIINKDCYTDFCGLSITRDKLCSLIRKGYTLIEGYTDVKTIDNYQLRMFCIAFTKKRPNQTKTTCYAQTSQIKKIRKKMVDIMNAEASKVMLKDLVKKFIPESIGKEVEKQCKKIYPLQNVLIRKVKILKRPKLDISKLMELHTDSKEDAGKNVKSLPESKEATNILSAELKH", "soluble on expression in E. coli": "soluble"}
{"sequence": "MGSDKIHHHHHHMAELQEVQITEEKPLLPGQTPETAKEAELAARILLDQGQTHSVETPYGSVTFTVYGTPKPKRPAIFTYHDVGLNYKSCFQPLFRFGDMQEIIQNFVRVHVDAPGMEEGAPVFPLGYQYPSLDQLADMIPCILQYLNFSTIIGVGVGAGAYILSRYALNHPDTVEGLVLINIDPNAKGWMDWAAHKLTGLTSSIPDMILGHLFSQEELSGNSELIQKYRGIIQHAPNLENIELYWNSYNNRRDLNFERGGETTLKCPVMLVVGDQAPHEDAVVECNSKLDPTQTSFLKMADSGGQPQLTQPGKLTEAFKYFLQG", "soluble on expression in E. coli": "not soluble"}
{"sequence": "MGHHHHHHSHMANCEGTDGDGTGCNGWFFVQAIVDKQTGDTVSEDEDENATDTGSDMVDFIDDATDICIQAERETAQVLLNMQQAQRDAQTVRALKRKYTDSIESSPLAKSPLQELSIWKWKLTRR", "soluble on expression in E. coli": "not soluble"}
